Test results published in patent US20210139548A1 (published 2021).
*1 amine or outer side, *2 acyl side, *3 side chain or, on linkers, in order; H or OH if unused. Side-chain parts run from the residue outwards. The star is where a group is joined. C18 diacid = O=C(O)CCCCCCCCCCCCCCCCC(=O)*; γGlu = O=C(O)[C@H](CCC(=O)[*:2])N[*:1]; Isovaleryl = CC(C)CC(=O)*; AEEA = NCCOCCOCC(=O)O

B1: Compound 195 (peptide)
peptide: Isovaleryl-APEK([AEEA-AEEA-γGlu-C18 diacid])PEEDASPEALQRYYVELRHYYNWLTRQRY-NH2
SMILES: CC(C)CC(=O)N[C@@H](C)C(=O)N1CCC[C@H]1C(=O)N[C@@H](CCC(=O)O)C(=O)N[C@@H](CCCCNC(=O)COCCOCCNC(=O)COCCOCCNC(=O)CC[C@H](NC(=O)CCCCCCCCCCCCCCCCC(=O)O)C(=O)O)C(=O)N1CCC[C@H]1C(=O)N[C@@H](CCC(=O)O)C(=O)N[C@@H](CCC(=O)O)C(=O)N[C@@H](CC(=O)O)C(=O)N[C@@H](C)C(=O)N[C@@H](CO)C(=O)N1CCC[C@H]1C(=O)N[C@@H](CCC(=O)O)C(=O)N[C@@H](C)C(=O)N[C@@H](CC(C)C)C(=O)N[C@@H](CCC(N)=O)C(=O)N[C@@H](CCCNC(=N)N)C(=O)N[C@@H](Cc1ccc(O)cc1)C(=O)N[C@@H](Cc1ccc(O)cc1)C(=O)N[C@H](C(=O)N[C@@H](CCC(=O)O)C(=O)N[C@@H](CC(C)C)C(=O)N[C@@H](CCCNC(=N)N)C(=O)N[C@@H](Cc1c[nH]cn1)C(=O)N[C@@H](Cc1ccc(O)cc1)C(=O)N[C@@H](Cc1ccc(O)cc1)C(=O)N[C@@H](CC(N)=O)C(=O)N[C@@H](Cc1c[nH]c2ccccc12)C(=O)N[C@@H](CC(C)C)C(=O)N[C@H](C(=O)N[C@@H](CCCNC(=N)N)C(=O)N[C@@H](CCC(N)=O)C(=O)N[C@@H](CCCNC(=N)N)C(=O)N[C@@H](Cc1ccc(O)cc1)C(N)=O)[C@@H](C)O)C(C)C
B2: Compound 196 (peptide)
peptide: Isovaleryl-APAK([AEEA-AEEA-γGlu-C18 diacid])PPEDAEPEELQRYYVSLRHYYNWLTRQRY-NH2
SMILES: CC(C)CC(=O)N[C@@H](C)C(=O)N1CCC[C@H]1C(=O)N[C@@H](C)C(=O)N[C@@H](CCCCNC(=O)COCCOCCNC(=O)COCCOCCNC(=O)CC[C@H](NC(=O)CCCCCCCCCCCCCCCCC(=O)O)C(=O)O)C(=O)N1CCC[C@H]1C(=O)N1CCC[C@H]1C(=O)N[C@@H](CCC(=O)O)C(=O)N[C@@H](CC(=O)O)C(=O)N[C@@H](C)C(=O)N[C@@H](CCC(=O)O)C(=O)N1CCC[C@H]1C(=O)N[C@@H](CCC(=O)O)C(=O)N[C@@H](CCC(=O)O)C(=O)N[C@@H](CC(C)C)C(=O)N[C@@H](CCC(N)=O)C(=O)N[C@@H](CCCNC(=N)N)C(=O)N[C@@H](Cc1ccc(O)cc1)C(=O)N[C@@H](Cc1ccc(O)cc1)C(=O)N[C@H](C(=O)N[C@@H](CO)C(=O)N[C@@H](CC(C)C)C(=O)N[C@@H](CCCNC(=N)N)C(=O)N[C@@H](Cc1c[nH]cn1)C(=O)N[C@@H](Cc1ccc(O)cc1)C(=O)N[C@@H](Cc1ccc(O)cc1)C(=O)N[C@@H](CC(N)=O)C(=O)N[C@@H](Cc1c[nH]c2ccccc12)C(=O)N[C@@H](CC(C)C)C(=O)N[C@H](C(=O)N[C@@H](CCCNC(=N)N)C(=O)N[C@@H](CCC(N)=O)C(=O)N[C@@H](CCCNC(=N)N)C(=O)N[C@@H](Cc1ccc(O)cc1)C(N)=O)[C@@H](C)O)C(C)C
B3: Compound 197 (peptide)
peptide: Isovaleryl-APAK([AEEA-AEEA-γGlu-C18 diacid])PEADASPEELQRYYVELRHYYNWLTRQRY-NH2
SMILES: CC(C)CC(=O)N[C@@H](C)C(=O)N1CCC[C@H]1C(=O)N[C@@H](C)C(=O)N[C@@H](CCCCNC(=O)COCCOCCNC(=O)COCCOCCNC(=O)CC[C@H](NC(=O)CCCCCCCCCCCCCCCCC(=O)O)C(=O)O)C(=O)N1CCC[C@H]1C(=O)N[C@@H](CCC(=O)O)C(=O)N[C@@H](C)C(=O)N[C@@H](CC(=O)O)C(=O)N[C@@H](C)C(=O)N[C@@H](CO)C(=O)N1CCC[C@H]1C(=O)N[C@@H](CCC(=O)O)C(=O)N[C@@H](CCC(=O)O)C(=O)N[C@@H](CC(C)C)C(=O)N[C@@H](CCC(N)=O)C(=O)N[C@@H](CCCNC(=N)N)C(=O)N[C@@H](Cc1ccc(O)cc1)C(=O)N[C@@H](Cc1ccc(O)cc1)C(=O)N[C@H](C(=O)N[C@@H](CCC(=O)O)C(=O)N[C@@H](CC(C)C)C(=O)N[C@@H](CCCNC(=N)N)C(=O)N[C@@H](Cc1c[nH]cn1)C(=O)N[C@@H](Cc1ccc(O)cc1)C(=O)N[C@@H](Cc1ccc(O)cc1)C(=O)N[C@@H](CC(N)=O)C(=O)N[C@@H](Cc1c[nH]c2ccccc12)C(=O)N[C@@H](CC(C)C)C(=O)N[C@H](C(=O)N[C@@H](CCCNC(=N)N)C(=O)N[C@@H](CCC(N)=O)C(=O)N[C@@H](CCCNC(=N)N)C(=O)N[C@@H](Cc1ccc(O)cc1)C(N)=O)[C@@H](C)O)C(C)C
B4: Compound 199 (peptide)
peptide: Isovaleryl-APEK([AEEA-AEEA-γGlu-C18 diacid])PEEDAEPEETQRYYVSLRHYYNWLTRQRY-NH2
SMILES: CC(C)CC(=O)N[C@@H](C)C(=O)N1CCC[C@H]1C(=O)N[C@@H](CCC(=O)O)C(=O)N[C@@H](CCCCNC(=O)COCCOCCNC(=O)COCCOCCNC(=O)CC[C@H](NC(=O)CCCCCCCCCCCCCCCCC(=O)O)C(=O)O)C(=O)N1CCC[C@H]1C(=O)N[C@@H](CCC(=O)O)C(=O)N[C@@H](CCC(=O)O)C(=O)N[C@@H](CC(=O)O)C(=O)N[C@@H](C)C(=O)N[C@@H](CCC(=O)O)C(=O)N1CCC[C@H]1C(=O)N[C@@H](CCC(=O)O)C(=O)N[C@@H](CCC(=O)O)C(=O)N[C@H](C(=O)N[C@@H](CCC(N)=O)C(=O)N[C@@H](CCCNC(=N)N)C(=O)N[C@@H](Cc1ccc(O)cc1)C(=O)N[C@@H](Cc1ccc(O)cc1)C(=O)N[C@H](C(=O)N[C@@H](CO)C(=O)N[C@@H](CC(C)C)C(=O)N[C@@H](CCCNC(=N)N)C(=O)N[C@@H](Cc1c[nH]cn1)C(=O)N[C@@H](Cc1ccc(O)cc1)C(=O)N[C@@H](Cc1ccc(O)cc1)C(=O)N[C@@H](CC(N)=O)C(=O)N[C@@H](Cc1c[nH]c2ccccc12)C(=O)N[C@@H](CC(C)C)C(=O)N[C@H](C(=O)N[C@@H](CCCNC(=N)N)C(=O)N[C@@H](CCC(N)=O)C(=O)N[C@@H](CCCNC(=N)N)C(=O)N[C@@H](Cc1ccc(O)cc1)C(N)=O)[C@@H](C)O)C(C)C)[C@@H](C)O
B5: Compound 202 (peptide)
peptide: Isovaleryl-APEK([AEEA-AEEA-γGlu-C18 diacid])PEEDAAPEELQKYYVSLRHYYNWLTRQRY-NH2
SMILES: CC(C)CC(=O)N[C@@H](C)C(=O)N1CCC[C@H]1C(=O)N[C@@H](CCC(=O)O)C(=O)N[C@@H](CCCCNC(=O)COCCOCCNC(=O)COCCOCCNC(=O)CC[C@H](NC(=O)CCCCCCCCCCCCCCCCC(=O)O)C(=O)O)C(=O)N1CCC[C@H]1C(=O)N[C@@H](CCC(=O)O)C(=O)N[C@@H](CCC(=O)O)C(=O)N[C@@H](CC(=O)O)C(=O)N[C@@H](C)C(=O)N[C@@H](C)C(=O)N1CCC[C@H]1C(=O)N[C@@H](CCC(=O)O)C(=O)N[C@@H](CCC(=O)O)C(=O)N[C@@H](CC(C)C)C(=O)N[C@@H](CCC(N)=O)C(=O)N[C@@H](CCCCN)C(=O)N[C@@H](Cc1ccc(O)cc1)C(=O)N[C@@H](Cc1ccc(O)cc1)C(=O)N[C@H](C(=O)N[C@@H](CO)C(=O)N[C@@H](CC(C)C)C(=O)N[C@@H](CCCNC(=N)N)C(=O)N[C@@H](Cc1c[nH]cn1)C(=O)N[C@@H](Cc1ccc(O)cc1)C(=O)N[C@@H](Cc1ccc(O)cc1)C(=O)N[C@@H](CC(N)=O)C(=O)N[C@@H](Cc1c[nH]c2ccccc12)C(=O)N[C@@H](CC(C)C)C(=O)N[C@H](C(=O)N[C@@H](CCCNC(=N)N)C(=O)N[C@@H](CCC(N)=O)C(=O)N[C@@H](CCCNC(=N)N)C(=O)N[C@@H](Cc1ccc(O)cc1)C(N)=O)[C@@H](C)O)C(C)C
B6: Compound 204 (peptide)
peptide: Isovaleryl-APEK([AEEA-AEEA-γGlu-C18 diacid])PEEEASPEEVQRYYVSLRHYYNWLTRQRY-NH2
SMILES: CC(C)CC(=O)N[C@@H](C)C(=O)N1CCC[C@H]1C(=O)N[C@@H](CCC(=O)O)C(=O)N[C@@H](CCCCNC(=O)COCCOCCNC(=O)COCCOCCNC(=O)CC[C@H](NC(=O)CCCCCCCCCCCCCCCCC(=O)O)C(=O)O)C(=O)N1CCC[C@H]1C(=O)N[C@@H](CCC(=O)O)C(=O)N[C@@H](CCC(=O)O)C(=O)N[C@@H](CCC(=O)O)C(=O)N[C@@H](C)C(=O)N[C@@H](CO)C(=O)N1CCC[C@H]1C(=O)N[C@@H](CCC(=O)O)C(=O)N[C@@H](CCC(=O)O)C(=O)N[C@H](C(=O)N[C@@H](CCC(N)=O)C(=O)N[C@@H](CCCNC(=N)N)C(=O)N[C@@H](Cc1ccc(O)cc1)C(=O)N[C@@H](Cc1ccc(O)cc1)C(=O)N[C@H](C(=O)N[C@@H](CO)C(=O)N[C@@H](CC(C)C)C(=O)N[C@@H](CCCNC(=N)N)C(=O)N[C@@H](Cc1c[nH]cn1)C(=O)N[C@@H](Cc1ccc(O)cc1)C(=O)N[C@@H](Cc1ccc(O)cc1)C(=O)N[C@@H](CC(N)=O)C(=O)N[C@@H](Cc1c[nH]c2ccccc12)C(=O)N[C@@H](CC(C)C)C(=O)N[C@H](C(=O)N[C@@H](CCCNC(=N)N)C(=O)N[C@@H](CCC(N)=O)C(=O)N[C@@H](CCCNC(=N)N)C(=O)N[C@@H](Cc1ccc(O)cc1)C(N)=O)[C@@H](C)O)C(C)C)C(C)C

These binders were tested against T1, human neuropeptide Y2 receptor (human, UniProt P49146 1-381) (assay: radioligand competition (125I-PYY(1-36)), hNPY2R membranes).
T1 construct: whole, on cells; also called hNPY2 receptor; hNPY2-R
T1 sequence (looked up): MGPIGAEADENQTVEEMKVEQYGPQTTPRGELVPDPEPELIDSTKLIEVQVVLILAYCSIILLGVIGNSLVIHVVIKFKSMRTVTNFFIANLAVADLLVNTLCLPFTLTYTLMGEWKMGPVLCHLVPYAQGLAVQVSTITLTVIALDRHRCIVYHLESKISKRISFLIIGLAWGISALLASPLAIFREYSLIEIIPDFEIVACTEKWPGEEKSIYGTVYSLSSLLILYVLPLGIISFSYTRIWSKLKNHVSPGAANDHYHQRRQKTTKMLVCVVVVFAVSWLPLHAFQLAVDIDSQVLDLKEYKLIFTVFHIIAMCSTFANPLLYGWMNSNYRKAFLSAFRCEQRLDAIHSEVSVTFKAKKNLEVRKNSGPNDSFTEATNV
Procedure, shortened: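 Commercial human Y2 receptor membranes (0.5 μg protein/well) were incubated with peptide for 2 h at room temperature in 50 mM HEPES, 5 mM MgCl₂, 1 mM CaCl₂, pH 7.4, with 0.2% ovalbumin. Bound radioligand was separated on PEI-soaked GF/C filters and counted by scintillation, and IC₅₀ came from nonlinear sigmoidal regression.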
B1 showed a Ki of 0.75 nM. B2 was tested, and the Ki was 0.98 nM. For B3, the Ki was 0.87 nM. B4 was tested, and the Ki was 5.69 nM. For B5, the Ki was 0.6 nM. With B6 the Ki was 3.35 nM.
